Reference: IntAct's records for PubMed 23918659

B1: Vacuolar protein sorting-associated protein 33B (Homo sapiens), Q9H267 (parent)
chain: MAFPHRPDAPELPDFSMLKRLARDQLIYLLEQLPGKKDLFIEADLMSPLDRIANVSILKQHEVDKLYKVENKPALSSNEQLCFLVRPRIKNMRYIASLVNADKLAGRTRKYKVIFSPQKFYACEMVLEEEGIYGDVSCDEWAFSLLPLDVDLLSMELPEFFRDYFLEGDQRWINTVAQALHLLSTLYGPFPNCYGIGRCAKMAYELWRNLEEEEDGETKGRRPEIGHIFLLDRDVDFVTALCSQVVYEGLVDDTFRIKCGSVDFGPEVTSSDKSLKVLLNAEDKVFNEIRNEHFSNVFGFLSQKARNLQAQYDRRRGMDIKQMKNFVSQELKGLKQEHRLLSLHIGACESIMKKKTKQDFQELIKTEHALLEGFNIRESTSYIEEHIDRQVSPIESLRLMCLLSITENGLIPKDYRSLKTQYLQSYGPEHLLTFSNLRRAGLLTEQAPGDTLTAVESKVSKLVTDKAAGKITDAFSSLAKRSNFRAISKKLNLIPRVDGEYDLKVPRDMAYVFGGAYVPLSCRIIEQVLERRSWQGLDEVVRLLNCSDFAFTDMTKEDKASSESLRLILVVFLGGCTFSEISALRFLGREKGYRFIFLTTAVTNSARLMEAMSEVKA
partner: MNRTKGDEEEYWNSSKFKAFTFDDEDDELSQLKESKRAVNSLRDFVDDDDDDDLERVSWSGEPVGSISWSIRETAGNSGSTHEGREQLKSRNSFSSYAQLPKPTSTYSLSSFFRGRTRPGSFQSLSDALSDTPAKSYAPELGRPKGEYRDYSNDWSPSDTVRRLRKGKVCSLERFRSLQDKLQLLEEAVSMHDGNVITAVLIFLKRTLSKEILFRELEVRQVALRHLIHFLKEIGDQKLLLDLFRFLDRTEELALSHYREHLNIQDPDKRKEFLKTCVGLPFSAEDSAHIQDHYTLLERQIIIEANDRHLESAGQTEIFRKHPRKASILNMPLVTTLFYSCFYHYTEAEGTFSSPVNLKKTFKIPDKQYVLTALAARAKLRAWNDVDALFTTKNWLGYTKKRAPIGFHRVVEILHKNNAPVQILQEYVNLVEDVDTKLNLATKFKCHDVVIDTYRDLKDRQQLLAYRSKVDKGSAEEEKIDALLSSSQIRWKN

Variants of: B1
Details: with spe39_human VIPAS39, Q9H9C1

effect of a mutation on the interaction	Variant
decreasing interaction	L30P
decreasing interaction	G249V

Variants of: B1
Details: with spe39_human VIPAS39, Q9H9C1
Remark: another data set of the same source

effect of a mutation on the interaction	Variant
disrupting interaction	L30P

Variants of: B1
Details: with spe39_human VIPAS39, Q9H9C1
Remark: another data set of the same source

effect of a mutation on the interaction	Variant
decreasing interaction	S243F
decreasing interaction	D252E
decreasing interaction	D234H

Variants of: B1
Details: with spe39_human VIPAS39, Q9H9C1
Remark: another data set of the same source

effect of a mutation on the interaction	Variant
disrupting interaction	D232A;R233A;D234A
disrupting interaction	V251A;D252A;D253A
disrupting interaction	V235A;D236A;F237A
